Publication PMC4283134, “Nup98 FG domains from diverse species spontaneously phase-separate into particles with nuclear pore-like permselectivity” (eLife, 2015)

Target: T1, Saccharomyces cerevisiae Importin β (Kap95p) (S. cerevisiae, UniProt Q06142 1-861)
T1 sequence (looked up): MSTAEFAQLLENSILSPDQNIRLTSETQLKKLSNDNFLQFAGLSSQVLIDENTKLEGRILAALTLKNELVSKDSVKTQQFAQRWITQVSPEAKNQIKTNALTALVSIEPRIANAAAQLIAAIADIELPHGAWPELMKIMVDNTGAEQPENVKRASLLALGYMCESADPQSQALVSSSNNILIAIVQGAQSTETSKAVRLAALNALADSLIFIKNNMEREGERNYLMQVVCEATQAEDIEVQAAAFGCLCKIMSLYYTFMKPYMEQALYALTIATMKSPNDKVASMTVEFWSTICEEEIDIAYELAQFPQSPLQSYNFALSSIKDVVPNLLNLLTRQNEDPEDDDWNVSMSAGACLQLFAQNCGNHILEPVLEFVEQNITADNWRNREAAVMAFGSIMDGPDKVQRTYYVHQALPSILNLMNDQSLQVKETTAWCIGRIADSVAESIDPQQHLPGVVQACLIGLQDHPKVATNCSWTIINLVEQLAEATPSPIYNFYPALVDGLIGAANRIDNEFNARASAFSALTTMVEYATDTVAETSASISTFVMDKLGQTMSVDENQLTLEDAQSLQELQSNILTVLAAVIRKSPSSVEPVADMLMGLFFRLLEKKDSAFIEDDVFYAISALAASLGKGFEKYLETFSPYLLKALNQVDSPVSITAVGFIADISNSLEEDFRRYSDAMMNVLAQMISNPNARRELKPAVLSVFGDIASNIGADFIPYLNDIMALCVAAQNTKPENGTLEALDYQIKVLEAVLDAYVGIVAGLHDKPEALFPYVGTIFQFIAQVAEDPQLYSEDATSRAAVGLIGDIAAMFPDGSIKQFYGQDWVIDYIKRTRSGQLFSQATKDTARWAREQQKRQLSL
Assay: NTR⋅cargo complex formed from purified proteins, followed by the fluorescent cargo's entry into FG particles (confocal microscopy); 1 µM complex (referring to substrate monomers) added to FG particles; no separate test of complex formation is described
Conditions: both partners purified

B1: Atto488-labelled IBB domain of S. cerevisiae Srp1p (domain or fragment)
chain: DNGTDSSTSKFVPEYRRTNFKNKGRFSADELRRRRDTQQVELRKAKRDEALAKRRNFIPPTDC
modifications: also: Atto488 label, position not given here
notes: IBB domain of Srp1p (importin α), S. cerevisiae, residues 2-63; C-terminal cysteine of the construct; The label probably sits on the C-terminal cysteine; also called ScIBB; IBB-Atto488; source: E. coli (BLR or NEB Express), purified (native Ni(II) chelate chromatography, tag removed); not shown: His14, N-terminal, cleaved; ZZ, N-terminal, cleaved; brNEDD8, N-terminal, cleaved
binding result: binds
